Laboratory results: patent US6579695B1

Columns and labels:
[1] = target: N-terminal hexa-histidine-tagged SrfB1 domain of surfactin synthetase, apo-form (His6-SrfB1) (Bacillus subtilis) (UniProt Q04747)
[2] = target: Rhizobial NodF (wild-type) (Rhizobial)
[3] = target: Lactobacillus casei D-Alanyl carrier protein, apo-form (apo-Dcp) (Lactobacillus casei)
[4] = target: E. coli acyl carrier protein, apo-form (apo-ACP) (E. coli) (UniProt P0A6A8)

Row | Substance | [14C]-L-valine-holo-SrfB1 covalent complex formed after preincubation of apo-SrfB1 with Sfp and CoASH [1] [fold] | [3H]phosphopantetheine incorporated, in vitro phosphopantetheinylation (ACP-NodF chimera) [dpm] | % conversion, in vitro phosphopantetheinylation with [3H]CoA [2] [%] | radioactivity incorporated into the protein fraction, 36 hour in vitro phosphopantetheinylation [3] | Km for apo-ACP, [3H]CoA radioassay [4] [µM] | apparent kcat of phosphopantetheinyl transfer, [3H]CoA radioassay [4] [s⁻¹]
1 | Bacillus subtilis Sfp (enzyme) | 14 | – | – | – | – | –
2 | E. coli holo-acyl carrier protein synthase (ACPS) (enzyme) | – | 122000 | 47 | 1.04e+06 | < 1 | 0.167
